Data from patent publication US20220041717A1 (AFFIMED, published 2022).

Tests used:
[1] = molecular target: CD16A (FcgammaRIIIA) on primary human NK-cells (human) (UniProt P08637); experiment: cell-based or functional assay
[2] = molecular target: CD16A (FcgammaRIIIA) on primary human NK-cells (human) (UniProt P08637); experiment: flow cytometry, titration on primary human NK-cells at 37 C, buffer; detection with anti-His mAb
[3] = molecular target: CD16A (FcgammaRIIIA) on primary human NK-cells (human) (UniProt P08637); experiment: flow cytometry titration on primary human NK-cells, 37 C; detection with anti-His mAb, FITC goat anti-mouse IgG
CS1 on myeloma cells [4] = molecular target: T1, CS1 on myeloma cells (UniProt Q9NQ25 23-335, limits assumed); experiment: cell-based or functional assay
CS1 on myeloma cells [5] = molecular target: T1, CS1 on myeloma cells; experiment: flow cytometry, titration on NCI-H929 cells; detection with CD16A-mFc.67/anti-human-FITC
Description: (§1) Antibody binding was quantified by detection with CD16A-mFc.67/anti-human-FITC and flow cytometry. control antibodies anti-BCMA (ANC3B1), anti-CD38 (HB7) and anti-CS1 (235614) were added at saturating concentrations and detected by anti-mouse-Fc-FITC (ctrl.)

CS1 on myeloma cells [6] = molecular target: T1, CS1 on myeloma cells; experiment: cell-based or functional assay; remark: listed apart in the source
CS1 on myeloma cells [7] = molecular target: T1, CS1 on myeloma cells; experiment: flow cytometry, titration on MM.1S cells; detection with CD16A-mFc.67/anti-human-FITC
Description: as §1

[8] = molecular target: T2, B-cell maturation antigen (BCMA) on myeloma cell lines (human, UniProt Q02223 1-184); experiment: flow cytometry, titration on RPMI-8226 cells; detection with CD16A-mFc.67/anti-human-FITC
T2 construct: whole, on cells; also called CD269; TNFRSF17
T2 sequence (looked up): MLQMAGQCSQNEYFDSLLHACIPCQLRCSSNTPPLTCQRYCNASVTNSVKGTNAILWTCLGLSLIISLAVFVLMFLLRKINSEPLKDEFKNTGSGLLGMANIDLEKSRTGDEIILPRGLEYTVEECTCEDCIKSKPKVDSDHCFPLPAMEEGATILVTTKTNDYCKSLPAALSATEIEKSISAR
Description: as §1

[9] = molecular target: T3, CD16A (FcgammaRIIIA) on primary human NK-cells (human, UniProt P08637 17-208); experiment: flow cytometry, titration on primary human NK-cells at 37 C in presence of 10 mg/mL polyclonal human IgG (competitor)
T3 construct: The assays used primary human NK-cells

[10] = molecular target: T3, CD16A (FcgammaRIIIA) on primary human …; experiment: cell-based or functional assay
[11] = molecular target: T2, B-cell maturation antigen (BCMA) on …; experiment: flow cytometry titration on MM.1S cells; detection with CD16A-mFc.67/anti-human-FITC
Description: as §1

[12] = molecular target: T2, B-cell maturation antigen (BCMA) on …; experiment: flow cytometry titration on NCI-H929 cells; detection with CD16A-mFc.67/anti-human-FITC
Description: as §1

[13] = molecular target: T3, CD16A (FcgammaRIIIA) on primary human …; experiment: flow cytometry titration on primary human NK-cells, 37 C; detection with BCMA(1-54)-GCN4-His, anti-His mAb, FITC goat anti-mouse IgG
Description: (§2) Method: Serial dilutions of anti-CD16A scFv are added to primary human NK-cells at 37° C. for 45 min followed by detection of antibody binding on ice.

[14] = molecular target: T3, CD16A (FcgammaRIIIA) on primary human …; experiment: flow cytometry titration on primary human NK-cells, 37 C, in presence of 10 mg/mL polyclonal human IgG; detection with BCMA(1-54)-GCN4-His, anti-His mAb, FITC goat anti-mouse IgG
[15] = molecular target: T3, CD16A (FcgammaRIIIA) on primary human …; experiment: flow cytometry titration on primary human NK-cells, 37 C, buffer without IgG; detection with BCMA(1-54)-GCN4-His, anti-His mAb, FITC goat anti-mouse IgG
[16] = molecular target: T3, CD16A (FcgammaRIIIA) on primary human …; experiment: flow cytometry, titration on primary human NK-cells at 37 C, buffer; apparent affinity; detection via BCMA(1-54)-GCN4-His/anti-His
[17] = molecular target: T3, CD16A (FcgammaRIIIA) on primary human …; experiment: flow cytometry, titration on primary human NK-cells at 37 C, buffer; apparent affinity
Description: as §2

[18] = molecular target: T2, B-cell maturation antigen (BCMA) on …; experiment: cell-based or functional assay
[19] = molecular target: T2, B-cell maturation antigen (BCMA) on …; experiment: flow cytometry, titration on NCI-H929 cells; detection with CD16A-mFc.67/anti-human-FITC
Description: as §1

[20] = molecular target: T3, CD16A (FcgammaRIIIA) on primary human …; experiment: flow cytometry on primary human NK-cells, with against without 10 mg/mL polyclonal human IgG
[21] = molecular target: T2, B-cell maturation antigen (BCMA) on …; experiment: cell-based or functional assay; remark: listed apart in the source
[22] = molecular target: T2, B-cell maturation antigen (BCMA) on …; experiment: flow cytometry, titration on MM.1S cells; detection with CD16A-mFc.67/anti-human-FITC
Description: as §1

Sequence of CD16A (FcgammaRIIIA) on primary human NK-cells (human) (P08637 17-208): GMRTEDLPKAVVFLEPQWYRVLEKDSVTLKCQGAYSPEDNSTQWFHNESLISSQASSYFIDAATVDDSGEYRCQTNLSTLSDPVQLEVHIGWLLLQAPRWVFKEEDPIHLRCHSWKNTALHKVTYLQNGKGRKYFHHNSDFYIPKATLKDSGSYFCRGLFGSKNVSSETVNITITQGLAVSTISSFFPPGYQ
T3 sequence (P08637 17-208): as above

B1: Anti-CD16A diabody (protein, not shown: small tags and cut ends)
VL: SYVLTQPSSVSVAPGQTATISCGGHNIGSKNVHWYQQRPGQSPVLVIYQDNKRPSGIPERFSGSNSGNTATLTISGTQAMDEADYYCQVWDNYSVLFGGGTKLTVL
VH: QVQLVQSGAEVKKPGESLKVSCKASGYTFTSYYMHWVRQAPGQGLEWMGAIEPMYGSTSYAQKFQGRVTMTRDTSTSTVYMELSSLRSEDTAVYYCARGSAYYYDFADYWGQGTLVTVSS
modifications: diabody linker not stated
[1]
  EC50 of antibody-induced NK-cell-NK-cell lysis (4 h calcein release): 0.659 nM

B2: Anti-CD16A scFv (scFv, V domains shown, part only)
VL: B1 VL
VH: B1 VH
[2]
  Kd: 12.2 nM
[3]
  EC50 (read off the curve): 10 nM

B3: elotuzumab (antibody, V domains shown)
VH: EVQLVESGGGLVQPGGSLRLSCAASGFDFSRYWMSWVRQAPGKGLEWIGEINPDSSTINYAPSLKDKFIISRDNAKNSLYLQMNSLRAEDTAVYYCARPDGNYWYFDVWGQGTLVTVSS
VL: DIQMTQSPSSLSASVGDRVTITCKASQDVGIAVAWYQQKPGKVPKLLIYWASTRHTGVPDRFSGSGSGTDFTLTISSLQPEDVATYYCQQYSSYPYTFGQGTKVEIK
CS1 on myeloma cells [4]
  EC50 of NK-cell-mediated lysis of MM.1S cells (4 h calcein release): 0.153 nM
  EC50 of NK-cell-mediated lysis of NCI-H929 cells (4 h calcein release): 0.394 nM
CS1 on myeloma cells [5]
  Kd: 36 nM
CS1 on myeloma cells [6]
  EC50 of NK-cell-mediated lysis of primary myeloma cells (multiple myeloma; 4 h 51Cr release): 0.145 nM
  EC50 of NK-cell-mediated lysis of primary myeloma cells (plasma cell leukemia; 4 h 51Cr release): 0.0782 nM
CS1 on myeloma cells [7]
  Kd: 35.7 nM

B4: BCMA/CD16A-directed tandem diabody in variant 4 (bispecific antibody)
chain: QVQLVQSGAEVKTPGEPLKISCKGSGYSFTDSWIGWVRQMPGKGLEWMGIIYAGDSDARYSPSFQGQVTISADTSTSTVYLQWSSLKASDTAMYYCARNFGDHWGQGTLVTVSSGGSGGSGGSGGSSYVLTQPSSVSVAPGQTATISCGGHNIGSKNVHWYQQRPGQSPVLVIYQDNKRPSGIPERFSGSNSGNTATLTISGTQAMDEADYYCQVWDNYSVLFGGGTKLTVLGGSQVQLVQSGAEVKKPGESLKVSCKASGYTFTSYYMHWVRQAPGQGLEWMGAIEPMYGSTSYAQKFQGRVTMTRDTSTSTVYMELSSLRSEDTAVYYCARGSAYYYDFADYWGQGTLVTVSSGGSGGSGGSGGSSYELTQSPSVSVAPGQTARIFCGGDNIGSKNVHWYQQKPGQAPVLVIYRDSNRPSGIPERFSGANSENTATLTISRAQAGDEADYYCQVWDSRTYVFGTGTKLTVL
notes: also called tandem diabody variant 4; Tandem diabody (v4)
[8]
  Kd: 26.7 nM
[9]
  Kd: 3.6 nM
[10]
  EC50 of NK-cell-mediated lysis of BCMA+ NCI-H929 cells (4 h calcein release), 10 mg/mL polyclonal human IgG: 0.0761 nM
  EC50 of NK-cell-mediated lysis of BCMA+ NCI-H929 cells (4 h calcein release), buffer: 0.0162 nM
  Fold-loss in potency (EC50 with 10 mg/mL IgG against buffer): 4.7 fold
[11]
  EC50 (read off the curve): ~10 nM
[12]
  EC50 (read off the curve): ~20 nM
[13]
  EC50 (read off the curve): ~1 nM
[14]
  EC50 (read off the curve): ~4 nM
[15]
  EC50 (read off the curve): ~1 nM
[16]
  Kd: 1.2 nM
[17]
  Kd: 1.2 nM
[18]
  EC50 of NK-cell-mediated lysis of MM.1S cells (4 h calcein release): 0.0037 nM
  EC50 of NK-cell-mediated lysis of NCI-H929 cells (4 h calcein release): 0.0091 nM
  EC50 of NK-cell-mediated lysis of RPMI-8226 cells (4 h calcein release): 0.0623 nM
[19]
  Kd: 27.7 nM
[20]
  fold-change (KD with 10 mg/mL IgG against KD in buffer): 3 fold
[21]
  EC50 of NK-cell-mediated lysis of primary myeloma cells from a pleural effusion (multiple myeloma; 4 h 51Cr release): 0.004 nM
  EC50 of NK-cell-mediated lysis of primary myeloma cells from peripheral blood (plasma cell leukemia; 4 h 51Cr release): 0.0063 nM
[22]
  Kd: 11.5 nM
